Consider one sequence from US20110082078.

The data set relates to ZFP-TF 14172-p65 (rat GDNF activator) (synthetic). Nature of the data set: cell_activity. Particulars: GDNF mRNA increase vs AAV-GFP in rat eye; also activates in rat striatal neurons (FIG. 5).

Sequence “GGGGGCGCGGAACCGGGA (double strand) [rat GDNF target site (SEQ ID NO:55)]” registered an activity of 5 fold.
